From paper PMC11584402

Columns and labels:
[1] = biological target: BCL2-mCherry (human), P10415; conditions: natural protein; chains chain; remark: other sources report otherwise
[2] = biological target: BCLxL-mCherry (human), Q07817; test: probe binding assay (PBA; single-molecule pull-down with TIRF counting); mCherry-labelled anti-apoptotic protein immobilised from HEK293T crude extract on a PEG surface (biotinylated anti-RFP antibody); crude HEK293T extract with the eGFP-labelled probe diluted to a range of eGFP concentrations, 10 min; fractional occupancy of surface baits at equilibrium fitted with n fixed to 1 or with the generalized Hill …; conditions: remark: other sources report otherwise
Chain of BCLxL-mCherry (human), Q07817 (Q07817 whole entry): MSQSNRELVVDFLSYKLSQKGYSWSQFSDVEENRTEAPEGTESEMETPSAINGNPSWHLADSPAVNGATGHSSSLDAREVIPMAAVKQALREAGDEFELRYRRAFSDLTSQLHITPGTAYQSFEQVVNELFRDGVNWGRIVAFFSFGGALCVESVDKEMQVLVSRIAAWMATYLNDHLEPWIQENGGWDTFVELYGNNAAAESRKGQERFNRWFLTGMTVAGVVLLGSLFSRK

[3] = biological target: MCL1-mCherry (human), Q07820; test: probe binding assay (PBA; single-molecule pull-down with TIRF counting); mCherry-labelled anti-apoptotic protein from HEK293T crude extract immobilised on the PEG surface (anti-RFP antibody); eGFP-labelled probe in crude HEK293T extract added at 0-20 nM eGFP, 10 min; fractional occupancy of surface baits fitted to [probe]/(Kd+[probe]); conditions: remark: other sources report otherwise
Chain of MCL1-mCherry (human), Q07820 (Q07820 whole entry): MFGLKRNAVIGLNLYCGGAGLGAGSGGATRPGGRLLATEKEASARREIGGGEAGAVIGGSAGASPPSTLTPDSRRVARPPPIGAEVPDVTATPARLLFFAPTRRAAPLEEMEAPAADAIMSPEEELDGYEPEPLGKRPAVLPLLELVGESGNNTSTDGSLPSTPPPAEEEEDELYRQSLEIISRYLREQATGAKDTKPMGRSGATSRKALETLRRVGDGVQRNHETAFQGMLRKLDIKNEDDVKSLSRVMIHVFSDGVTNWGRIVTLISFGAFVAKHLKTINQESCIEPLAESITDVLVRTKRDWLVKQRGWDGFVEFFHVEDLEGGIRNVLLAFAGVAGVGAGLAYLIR

[4] = biological target: MCL1-mCherry (human), Q07820; test: probe binding assay (PBA; single-molecule pull-down with TIRF counting); mCherry-labelled anti-apoptotic protein immobilised from HEK293T crude extract on a PEG surface (biotinylated anti-RFP antibody); crude HEK293T extract with the eGFP-labelled probe diluted to a range of eGFP concentrations, 10 min; fractional occupancy of surface baits at equilibrium fitted with n fixed to 1 or with the generalized Hill …; conditions: remark: other sources report otherwise

Chain of BCL2-mCherry (human), P10415 (P10415 whole entry): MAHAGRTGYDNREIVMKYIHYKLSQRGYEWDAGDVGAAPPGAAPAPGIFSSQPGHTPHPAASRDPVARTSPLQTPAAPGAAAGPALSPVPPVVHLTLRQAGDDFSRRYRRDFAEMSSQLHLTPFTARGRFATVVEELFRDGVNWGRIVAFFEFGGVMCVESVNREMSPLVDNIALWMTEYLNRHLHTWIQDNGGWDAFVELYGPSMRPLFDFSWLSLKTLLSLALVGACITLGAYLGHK

| Kd [1] | Kd [2] | Kd [3] | Kd [4] | Binder |
| --- | --- | --- | --- | --- |
| 5.5 nM | 2.5 nM | – | – | BAD-eGFP, Q92934 1-168 (natural protein) MFQIPEFEPSEQEDSSSAERGLGPSPAGDGPSGSGKHHRQAPGLLWDASHQQEQPTSSSHHGGAGAVEIRSRHSSYPAGTEDDEGMGEEPSPFRGRSRSAPPNLWAAQRYGRELRRMSDEFVDSFKKGLPRPKSAGTATQMRQSSSWTRVFQSWWDRNLGRGSSAPSQ |
| – | – | 4.1 nM | 4.1 nM | NOXA-eGFP, Q13794 1-54 (natural protein) MPGKKARKNAQPSPARAPAELEVECATQLRRFGDKLNFRQKLLNLISKLFCSGT |
